Experimental data taken from publication PMC3229514, “Both hMutSα and hMutSß DNA Mismatch Repair Complexes Participate in 5-Fluorouracil Cytotoxicity”.

Experiments:
hMutSβ (hMSH2-hMSH3) = hMutSβ (hMSH2-hMSH3) (human, UniProt P43246;P20585 1-934;1-1137); experiment: SPR (IAsys); 10 mM Mg2+; EMSA: 100 nM hMutSβ, 20 mM HEPES pH 7.6, 1 mM EDTA, 1 mM DTT, 10% glycerol, 100 µg poly(dI-dC), 10 µl; IAsys: 100 nM protein, 25 mM Tris-Cl pH 7.8, 20 mM NaCl; conditions: protein: recombinant, copies: 1;1, label: 5'-32P on S5 (EMSA), 5'-biotin on S5 (IAsys)
hMutSα = hMutSα (human, UniProt P43246;P52701 1-934;1-1360); experiment: as above; conditions: protein: recombinant; copies: 1;1; label: 5'-32P on S5 (EMSA); 5'-biotin on S5 (IAsys); blunt; 5FdU opposite A by the printed complement

B1: 5-FU-containing 38-mer duplex (dsDNA)
DNA 1: TTTCTGACTTGGATACCAUCTATCTATCTATAAAATAT
DNA 2: ATATTTTATAGATAGATAGATGGTATCCAAGTCAGAAA
modifications: 5-fluoro-2'-deoxyuridine at position 19 of strand 1 (written U)
In the case of B1, the binding signal (hMutSβ (hMSH2-hMSH3); blunt, 5FdU opposite A by the printed complement) is reported as about 1.3 fold vs complementary DNA and the binding signal (hMutSα) is reported as ~2 fold vs hMutSβ on same DNA.

B2: AA insertion/deletion loop duplex (dsDNA)
DNA 1: TTTCTGACTTGGATACCATCTATCTATCTATAAAAAATAT
DNA 2: B1 DNA 2
B2 gave a binding signal (hMutSβ (hMSH2-hMSH3); blunt ends, 2-nt AA loop in strand 1 (40 nt vs 38 nt)) of about 1.8 fold vs complementary DNA.
